The target in this experiment is biotin-labelled EZH2 protein (UniProt Q15910). Description: KDM2B peptide array probed with biotin-EZH2 1 ug/ml, SA-HRP/ECL.
Chain of biotin-labelled EZH2 protein (Q15910 whole entry): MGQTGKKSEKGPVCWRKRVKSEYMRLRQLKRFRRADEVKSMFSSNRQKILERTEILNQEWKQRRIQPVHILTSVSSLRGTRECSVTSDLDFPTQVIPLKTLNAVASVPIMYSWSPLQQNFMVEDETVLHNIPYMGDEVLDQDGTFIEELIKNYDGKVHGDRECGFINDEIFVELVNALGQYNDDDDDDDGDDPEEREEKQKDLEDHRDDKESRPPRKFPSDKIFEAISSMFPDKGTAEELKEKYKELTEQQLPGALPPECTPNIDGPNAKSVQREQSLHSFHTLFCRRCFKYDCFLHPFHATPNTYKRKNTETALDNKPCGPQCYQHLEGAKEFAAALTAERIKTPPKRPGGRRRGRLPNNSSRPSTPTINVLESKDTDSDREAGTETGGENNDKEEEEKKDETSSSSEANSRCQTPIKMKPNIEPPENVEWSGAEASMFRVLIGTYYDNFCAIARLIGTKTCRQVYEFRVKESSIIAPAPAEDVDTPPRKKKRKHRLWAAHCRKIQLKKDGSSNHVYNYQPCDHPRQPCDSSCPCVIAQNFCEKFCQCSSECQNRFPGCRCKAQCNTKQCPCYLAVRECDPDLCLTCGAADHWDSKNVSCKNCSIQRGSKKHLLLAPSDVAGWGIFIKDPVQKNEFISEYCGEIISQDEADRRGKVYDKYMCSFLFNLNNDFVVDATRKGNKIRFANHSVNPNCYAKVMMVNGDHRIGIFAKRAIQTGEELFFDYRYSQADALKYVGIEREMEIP
In the case of LAVDYPKTPTGSPAT [peptide 98], the Intensity (%) is 0.77%. Molecule CIMRQCIAPVLPHTA [peptide 130] showed an Intensity (%) of 30.8%.

Regarding VLERYVYCVTQRSHL [peptide 74], the Intensity (%) worked out at 0.25%. The value for QPKFRYPFYYEMCWY [peptide 71] was 0.57%; that for IYEIEDRTRVQPKFR [peptide 69] was 0.15%.

Values taken from US20250197451A1, “USE OF BIOACTIVE POLYPEPTIDE SYNTHESIZED ON BASIS OF KDM2B SEQUENCE IN NEURAL DIFFERENTIATION AND REGENERATION AND REPAIR OF MESENCHYMAL STEM CELLS” (CAPITAL MEDICAL UNIVERSITY SCHOOL OF STOMATOLOGY, priority 2021, published 2025).
